Measured values reported in US20250042991A1 (University of Texas, published 2025).

B1: hLept-6 (antibody, V domains shown)
VH: QVQLMQSGAEVKKPGASVKVSCKASGYTFTSYYMHWVRQAPGQGLEWMGIINPSGGSTSYAQKFQGRVTMTRDTSTSTVYMELSSLRSEDTAVYYCARGFGYGGKALDYWGQGTTVTVSS
VL: DIQMTQSPPTLSASVGDRVTITCRASQNINSRLAWYQQKPGRAPKLLIYKASTLESGVPSRFSGSGSGTEFTLTISSLQPDDFATYYCQQFDKYSITFGGGTKMEIK
notes: Expressed as full human IgG in HEK293 cells
B2: hLept-3 (antibody, V domains shown)
VH: QVQLVQSGAEVKKPGSSVKVSCKASGGTFSSYAISWVRQAPGQGLEWMGGIIPIFGTANYAQKFQGRVTITADESTSTAYMELSSLRSEDTAVYYCARSQVPSSYYYGMDVWGQGTMVTVSS
VL: QSVLTQPPSVSGAPGQRVTISCTGGNSNIGAGYHVHWYQQLPGAAPKLLIYGDTNRPSGVPDRFSGSQSGTSASLAITGLQADDEADYYCQSYDRSRGGWFFGGGTQLTVL
notes: Expressed as full human IgG in HEK293 cells; also called hLetp-3
B3: hLept-1 (antibody, V domains shown)
VH: QVQLQQLGPGLVKPSETLSLTCNVSGGSVSRGSHYWTWIRQPPGKGLEWIGYIHTDGSTNFNPSLKSRVTMSLDRSRNQFSLTLSSVTATDTAVYYCAREPGGALNFWGQGTLVTVSS
VL: not shown
notes: From a human scFv phage library, expressed as full human IgG in HEK293 cells
B4: hLept-5 (antibody, V domains shown)
VH: QVKLVEWSLSVVQPGRSLRLSCAASGFTFSSYAMHWVRQAPGKGLEWVAVISYDGSNKYYADSVKGRFTISRDNSKNTLYLQMNSLRAEDTAVYYCARGREYYYYMDVWGKGTTVSVSS
VL: QSVLTQPPSVSVAPGKTARITCGGYNIARKSVHWYQQKPGQAPVLVMYNDNDRPSGIPERFSGSNSGNTATLTISRVEAGDEADYYCQVWDNSDYVFGTGTKVTVL
notes: as for B1
B5: hLept-2 (antibody, V domains shown)
VH: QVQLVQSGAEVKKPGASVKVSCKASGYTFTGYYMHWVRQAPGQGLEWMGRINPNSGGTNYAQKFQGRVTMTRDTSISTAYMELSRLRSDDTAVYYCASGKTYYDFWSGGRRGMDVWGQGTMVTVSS
VL: DIQLTQSPSSLSASVGDRVTITCRAGQSVSRYLNWFQQKPGKAPKLLIYTSSNLQSGVPSRFSASGSGTDFTLTISSLQPEDFATYYCQQTYSTPWTFGQGTKLEIK
notes: as for B1

Biological target: T1, human leptin (human, UniProt P41159 22-167)
T1 construct: Bought recombinant protein coated on ELISA plates; also called Leptin protein; LEPTIN antigen
T1 sequence (P41159 22-167 limits assumed): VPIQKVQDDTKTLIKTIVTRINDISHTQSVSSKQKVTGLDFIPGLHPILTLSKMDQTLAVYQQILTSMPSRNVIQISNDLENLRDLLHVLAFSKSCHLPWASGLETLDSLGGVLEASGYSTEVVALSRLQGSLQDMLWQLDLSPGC
Experiment: ELISA, human leptin coated on plate, 1:20 diluted culture supernatant
Protocol: Binding of LEPTIN by monoclonal antibodies was first screened by ELISA using supernatants collected from the B cell cultures. Human or mouse LEPTIN protein (Sino Biologicals) was coated on a 96-well high binding plate over night at 4° C. in PBS. B cell culture supernatants (5 μl medium and 95 μl of PBS) were added at for binding to LEPTIN antigen coated on the plate. Bound antibody was detected using a secondary antibody against rabbit IgG conjugated with HRP and TMB substrate.

Binder	absorbance at 450 nM
B1	0.663 absorbance at 450 nM
B2	0.19 absorbance at 450 nM
B3	0.071 absorbance at 450 nM
B4	0.739 absorbance at 450 nM
B5	2.57 absorbance at 450 nM

Biological target: T1, human leptin
Experiment: ELISA titration on coated leptin, 4 parameter fit
Protocol: ELISA titration was used to determine the binding affinity of a panel of monoclonal antibodies to LEPTIN antigen. Binding constants (KD and/or EC 50) of a panel of monoclonal antibodies were estimated using the 4 parameter curve fitting with Prism GraphPad program. For Biacore analysis, all experiments were performed at 25° C. at a flow rate of 45 μl/min. An anti-human IgG Fc antibody (from ThermoFisher, at 50 μg/ml each in acetate buffer, pH 5.0) was immobilized onto a carboxymethyl dextran sensorchip (CM5) using amine coupling procedures based on instruction from the manufacturer. Purified rabbit/human chimeric antibody to be tested was diluted at a concentration of 5 μg/ml in 0.5% P20, HBS-EP buffer and injected on FC2 to reach 500 to 1000 RU. FC1 was used as the reference cell. Specific signals correspond to the difference of signals obtained on FC2 versus FC1. The analyte (recombinant human LEPTIN, apparent molecular weight 16 kDa on SDS-PAGE gel) was injected during 90 sec at series of concentration dilutions (100, 50, 25, 12.5, 6.25, and 3.13, 1.56 nM) in 0.5% P20, HBS-EP buffer. These concentrations were prepared from stock solution in 0.5% P20, HBS-EP. The dissociation phase of the analyte was monitored over a 30 minutes period. Running buffer was also injected under the same conditions as a double reference. After each running cycle, both flow cells were regenerated by injecting 20 to 45 μl of Glycine-HCl buffer pH 1.5. Binding KD on LEPTIN was calculated by koff/kₒₙ kinetic rate for each LEPTIN monoclonal antibodies (Table 3).

Binder	EC50
B1	1 to 500 nM
B2	1 to 500 nM
B3	1 to 500 nM
B4	1 to 500 nM
B5	1 to 500 nM
